Target: T1, MTG (Streptomyces mobaraensis, UniProt P81453)
T1 construct: purchased Activa TI or Zedira
T1 sequence (P81453 77-407): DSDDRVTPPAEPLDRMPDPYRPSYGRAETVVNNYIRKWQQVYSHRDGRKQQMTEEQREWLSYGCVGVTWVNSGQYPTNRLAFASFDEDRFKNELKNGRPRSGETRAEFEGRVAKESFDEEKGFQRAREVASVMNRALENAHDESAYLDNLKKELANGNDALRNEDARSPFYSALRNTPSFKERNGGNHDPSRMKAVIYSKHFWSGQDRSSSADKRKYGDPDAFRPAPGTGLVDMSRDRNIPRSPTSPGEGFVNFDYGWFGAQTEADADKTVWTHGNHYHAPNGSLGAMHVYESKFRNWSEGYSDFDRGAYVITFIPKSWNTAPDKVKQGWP
Experiment: MTG-catalyzed conjugation of 3-APA to mAbs, degree of labeling (DOL) by LC-MS
Format: biochemical, S. mobarensis
Details: different IgG backgrounds, MTG and 3-APA at 37° C., per full mAb
Experimental: To assess the suitability of the mAb variants for MTG-catalyzed conjugation, intact mAbs (1 mg/mL) were reacted with 3-azido propylamine (3-APA; 20-100-fold molar excess) and MTG (Activa TI, 5-20% w/v or Zedira, 5-20 units/mg of mAb) in PBS buffer at 22-37° C. for 30 min to overnight. Reactions were stopped by the addition of MTG blocker (Zedira) to 100 μM and analyzed by LC-MS following deglycosylation with PNGase F and reduction with dithiothreitol. The degree of labeling (DOL) was determined by mass spectrometry.
LC-MS was performed on an Agilent 1260 HPLC system connected to an Agilent G6224 MS-TOF Mass Spectrometer. LC was run on an Agilent RP-mAb C4 column (2.1×50 mm, 3.5 micron) at a flow rate of 1 mL/min with the mobile phase 0.1% formic acid in water (A) and 0.1% formic acid in acetonitrile (Sigma-Aldrich Cat #34688) (B) and a gradient of 20% B (0-2 min), 20-60% B (2-3 min), 60-80% B (3-5.5 min). The instrument was operated in positive electro-spray ionization mode and scanned from m/z 600 to 6000. Mass to charge spectrum was deconvoluted using the Maximum Entropy algorithm and DOL was estimated using relative intensities of the deconvoluted masses corresponding to intact mAb (for intact mass) or mAb heavy chain (for reduced mass) with the addition of multiples of 83 Da (corresponding to 3-APA).
Instrument settings included: capillary voltage 3500V; fragmentor 175V; skimmer 65V; gas temperature 325C; drying gas flow 5.0 L/min; nebulizer pressure 30 psig; acquisition mode range 100-7000 with 0.42 scan rate.

## Panitumumab [Panitumumab WT]
  DOL 18 hr: 1.2

## Pertuzumab [Pertuzumab WT]
  DOL 18 hr: 1.2

## Panitumumab WT deglycosylated: deglycosylated WT panitumumab
  DOL 18 hr: 2.0

## Pertuzumab WT deglycosylated: deglycosylated WT pertuzumab
  DOL 18 hr: 2.0

From patent publication US12227593B2, “Site-specific conjugation of glycosylated monoclonal antibodies with transglutaminase” (Janssen Biotech, Inc., priority 2020, dated 2025)
